# B1: E. necator AATF dsRNA: long dsRNA against E. necator AATF (target SEQ ID NO:197) (nucleic acid)
# chain: TGATAGCGATCATGATAGATGCGACTCAAATTTTAGTAATAGGAATGACAAAGAGATTATTAAACGGTCTGAAATTCAAAGATTTATGGAAGAAGATCAAAAAGCAATATTATCAACTTTATCTCAAGCAGCAAAGGTAGATGCAGAAAAGGGAAGGGCAATTAAGTCACAACAAATGAGATTCGATTCTCTTCTAAATACGCGAATGGAGCTGCAGAAAGCTCTGATAGCAGTTAATTCTCTTACTACCTTTCAAGATGATAATTCTATTTTCTCCAAGGATAAGCCATACGAAGCAGC
# modifications: misc_feature 1..300: note = Inhibitory double stranded RNA; listed as RNA
# B2: EnMS: dsRNA against E. necator Malate synthase (target SEQ ID NO:188) (nucleic acid)
# chain: TACAAGCTCAGATCAGACCGAAAACTTCCAACGCTTATTATAAGACCTCGTGGCTGGCACTTAGATGAGAAACATGTAACTATTGAAGGAGAGCCAATATCCGGCTCTCTATTCGATTTTGGACTATACTTTTTTCACAATGCCAAAGAACTGATAAAACGAGACTTAGGGCCCTACTTTTATCTTCCAAAGATGGAATCTTATCTAGAAGCCCGTCTTTGGAATGATGTCTTCAACCTAGCACAGGACTATATTGGTATTTCTCGTGGAACTATACGCGCTACAGTTCTAATTGAAACCATACTTGCTGCATTTGAAATG
# modifications: misc_feature 1..321: note = Inhibitory double stranded RNA; listed as RNA
# B3: EnCYP51: long dsRNA against E. necator CYP51 (target SEQ ID NO:182) (nucleic acid)
# chain: TGTCAACGCCGAAGAGATTTACACTAATTTAACAACTCCGGTCTTTGGAAGAGATGTTGTATTTGATTGTCCAAATTCCAAACTCATGGAACAAAAAAAGTTTATGAAAACGGCTCTTACCATTGAAGCGTTCCATTCCTATGTAACAATAATACAAAATGAAGTAGAGGCATATATAAACAATTGCGTTAGCTTTCAGGGTGAGAGTGGCACAGTAAACATCTCAAAAGTTATGGCGGAAATCACTA
# modifications: misc_feature 1..248: note = Inhibitory double stranded RNA; listed as RNA
# B4: E. necator OEC60/OEC61 dsRNA: long dsRNA against E. necator homolog of OEC60/OEC61 (target SEQ ID NO:199) (nucleic acid)
# chain: CTGCTACTAGCTTTCATGGTATGAAACTCATTATTGGTGTTTTTATTGGTGAAACTGGTTGCTCTGGCGCTAAAGAGCAGGTGAACCACATCGTTAAATGGGGTAAATGGGATTTGGTAGAACTCATTGTGATCGGGAATGAGGCTCTGTTTAGTGGTCATGCGTCACCCGAAGAGTTAGCCGAATTTATTACCTCGACTAAAATCACCCTCAGATCAGC
# modifications: misc_feature 1..220: note = Inhibitory double stranded RNA; listed as RNA
# Experiments:
# E. necator = assay: SIGS, E. necator spore production on V. vinifera (whole plant and leaf disc assays); type: in vivo, Erysiphe necator; conditions: for visual powdery mildew coverage and density: V. vinifera leaves, 9 days post infection, vs buffer alone
# From the text: Spore suspension concentrations were normalized to the input tissue weight (g) before being normalized to the control.
# Spore suspension concentrations were normalized to the input tissue weight (g) before being normalized to the control. CYP51 is included as a positive control gene required for growth. Error bars±SEM. *p<0.05 by Student's T-Test (unpaired, 2-tailed) compared to control.
# With SIGS methods optimized and gene targets identified, we sought to translate these methods and targets to grape powdery mildew (FIG. 2). New long dsRNAs were designed for each target tested as there is significant sequence divergence between G. orontii MGH1 and E. necator c. First, procedures were optimized for the grapevine system by silencing CYP51. Spore production was reduced by 62% and 45% in grapevine whole plant and leaf disc assays, respectively when treated with long dsRNA against the same region of CYP51 as dsRNA-1 against G. orontii MGH1 CYP51 (FIG. 2; FIG. 7, panel a). […] We tested SIGS against the effective targets including AATF in the grapevine system, as we were interested in ascertaining whether they would show a statistically significant difference in grape powdery mildew spore production. […] The average reduction of powdery mildew spore production for SIGS against CYP51 and AATF was greater in E. necator compared to G. orontii (FIG. 4 and FIG. 7). One notable difference is G. orontii has 2 copies each of CYP51 and AATF while E. necator has 1 copy of each of these genes. SIGS against the other effective targets also were effective in reducing powdery mildew of grapevine (FIG. 7).
# As the full G. orontii MGH1 OEC60/OEC61 is conserved in other powdery mildews (Table 6) and has the potential to interact with both TCP13 and TCP14, we tested whether findings in the G. orontii MGH1-Arabidopsis pathosystem can translate to an agriculturally important pathosystem, powdery mildew of grapevine. To do so, we identified an OEC60/OEC61 homolog in E. necator c (Jones et al., 2014) and designed a long dsRNA to target this gene in the same region effective for G. orontii. Targeting of OEC60/OEC61 in Erysiphe necator by SIGS reduces grape powdery mildew production on V. vinifera leaves to 71% of control treated plants (FIG. 12), similar to the reduction seen with the Arabidopsis powdery mildew (FIG. 10, panel d).
# [1] = tested on: grapevine powdery mildew E. necator; assay: Vineyard field trials of topical dsRNA: powdery mildew disease incidence and disease severity (Kearney and Armstrong sites); type: in vivo, Erysiphe necator; conditions: Armstrong site
# Method: The tests were done at Kearney Agriculture Research and Extension Center, Parlier, CA (Fresno County) and Armstrong Plant Pathology Field Station at University of California, Davis, CA. Susceptible grapevine cultivars were tested—Sauvignon Blanc at Kearney and Chenin Blanc at Davis. In both cases, the Stihl backpack sprayer SR450 was used and sprayer calibration, and normalization was performed to ensure equal doses of treatment applied to each replicate. During the trial period, vines were irrigated by drip irrigation and the regular maintenance of weeding, herbicide and insecticide treatments were done by the Kearney or Davis site field staff. In early season, 2.0 gallons/5 replicates and in mid to late season 2.5 to 3.0 gallons/5 replicates were sprayed. All appropriate personal protective equipment (PPE) was used and required training was completed including pesticide application training and heat exhaustion training. A randomized block design was used with 5 replicates for each treatment. Two adjacent vines were used as one experimental unit and the area between two trunks (yellow box) was sprayed and assessed (FIG. 16).
# The trial was conducted at Kearney Agricultural Research and Extension Center, Parlier, CA on blocks of the susceptible white wine variety Sauvignon Blanc. Total of 5 different gene targets from grapevine powdery mildew E. necator, EnCYP51 (SEQ ID NO:182), EnLIP1 (SEQ ID NO:183), EnICL2 (SEQ ID NO:186), EnMS (SEQ ID NO:188) and EnAPG9 (SEQ ID NO:208) were tested at this site by backpack spraying of the experimental units with dsRNA designed specifically against these target genes. The treatments were placed in a randomized block design with 5 replicates of each (dsRNA treatments 1-5), 5 replicates of Gold Standard (GS) and 5 replicates of untreated control (UT Control). Gold Standard refers to the pesticides normally used by growers to control powdery mildew: Sulfur and other chemical fungicides such as Rally, Quintec, and Luna. Between each treatment replicate, consisting of two vines, there was a spacer vine to avoid the spray drift from one treatment another.
# FIG. 17 provides an overview of the treatment schedule at Kearney. A total of 4 treatments of dsRNA were performed between May and July, replacing the 4 final treatments of the GS. Data were collected at the times marked by the gray dots in FIG. 17. The monitoring of powdery mildew index data and manual scouting of disease in the field was used to adjust timing schedule per standard protocol (www2.ipm.ucanr.edu/weather/grape-powdery-mildew-risk-assessment-index/?src=redirect2refresh).
# The total number of bunches per replicate (mean of 130) and the bunches with powdery mildew growth were counted and percent of infected bunches per replicate was calculated.
# Disease severity was calculated by counting the number of infected berries compared to total berries in a bunch. 25 bunches from both sides of the canopy were assessed per replicate.
# This trial was conducted at University of California Davis Plant Pathology Armstrong Facility on white wine variety Chenin Blanc. A total of 4 different gene targets from grapevine powdery mildew E. necator, EnLIP1 (Seq ID No:183), EnICL2 (Seq ID 186), EnMS (Seq ID No:188) and EnAPG9 (Seq ID No:208) were tested at this site by treating the vines with dsRNA designed against these target genes. A randomized block design with 5 replicates of each (treatments 1-5) and 5 replicates of untreated control (UT Control) was utilized. Spray protocols and spray volumes were the same as done by Akif Eskalen's team as shown on this link (Elfar et al. 2021, ucanr.edu/sites/eskalenlab/files/355630.pdf) and in Table 10. Eskalen's lab performed 3rd party commercial fungicide trials for the industry.
# In this field trial, a total of 3 sprays of dsRNA were performed between May and early June (FIG. 21). For the dsRNA treatments, no parallel chemical treatments were performed prior to the dsRNA treatments. […]
molecule,measurement,setting,value
B1,average reduction in spore production,"E. necator; long dsRNA, assay format not stated (FIG. 7)",53%
B2,powdery mildew disease incidence,"[1]; Chenin Blanc, 3 weeks after end of treatments (June 23), untreated ~80%",~20%
same,mean disease severity (percent of berries with powdery mildew per bunch),"[1]; June 28, almost 4 weeks post dsRNA treatment, untreated 12%",2%
B3,visual powdery mildew coverage and density,E. necator,Less powdery mildew density
same,visual powdery mildew coverage and density,E. necator; listed as E. necator CYP51 dsRNA,less powdery mildew coverage and density
same,reduction in spore production,"E. necator; grapevine leaf disc assay, long dsRNA",45%
same,reduction in spore production,"E. necator; grapevine whole plant assay, long dsRNA",62%
B4,effect on grapevine powdery mildew growth and reproduction / spore production,"E. necator; E. necator on V. vinifera, SIGS",reduces spore production
same,grape powdery mildew spore production relative to control treated plants,"E. necator; V. vinifera leaf discs (FIG. 12), long dsRNA",71 % of control

# — US20260117244A1, “INHIBITORY RNA FOR THE CONTROL OF PHYTOPATHOGENS” (priority 2021, published 2026)
